Experiments:
人SIRPβ-ECD-His抗原 = target: T1, 人SIRPβ-ECD-His抗原 (human, UniProt O00241 30-371); experiment: ELISA summary (Table 3, methods of Example 2)
T1 construct: It ends in a His tag; also called SIRPβ抗原

重组人SIRPα带his标签的蛋白 [1] = target: T2, 重组人SIRPα带his标签的蛋白 (human, UniProt P78324 31-373); experiment: SPR (Biacore T200), ratio of KD against Benchmark
T2 construct: extracellular domain; also called 人SIRPα-his抗原; SRPA-ECD-His; not shown: C-terminal His tag from vector pCMV-C-His

重组人SIRPα带his标签的蛋白 [2] = target: T2, 重组人SIRPα带his标签的蛋白; experiment: SPR (Biacore T200), antibody captured on anti-mouse IgG CM5 chip, human SIRPα-his as analyte
重组人SIRPα带his标签的蛋白 [3] = target: T2, 重组人SIRPα带his标签的蛋白; experiment: SPR (Biacore T200), human SIRPα-his as analyte

T2 sequence (P78324 31-373): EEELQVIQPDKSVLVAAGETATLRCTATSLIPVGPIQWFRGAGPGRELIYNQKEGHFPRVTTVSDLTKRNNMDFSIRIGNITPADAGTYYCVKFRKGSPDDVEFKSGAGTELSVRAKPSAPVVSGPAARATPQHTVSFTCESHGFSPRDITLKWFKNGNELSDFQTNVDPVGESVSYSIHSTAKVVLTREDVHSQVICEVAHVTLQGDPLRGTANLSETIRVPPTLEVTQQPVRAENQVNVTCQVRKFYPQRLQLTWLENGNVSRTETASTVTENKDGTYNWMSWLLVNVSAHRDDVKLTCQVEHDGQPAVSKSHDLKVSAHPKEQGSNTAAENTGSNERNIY
T1 sequence (O00241 other isoform, or with tags, fused parts or gaps): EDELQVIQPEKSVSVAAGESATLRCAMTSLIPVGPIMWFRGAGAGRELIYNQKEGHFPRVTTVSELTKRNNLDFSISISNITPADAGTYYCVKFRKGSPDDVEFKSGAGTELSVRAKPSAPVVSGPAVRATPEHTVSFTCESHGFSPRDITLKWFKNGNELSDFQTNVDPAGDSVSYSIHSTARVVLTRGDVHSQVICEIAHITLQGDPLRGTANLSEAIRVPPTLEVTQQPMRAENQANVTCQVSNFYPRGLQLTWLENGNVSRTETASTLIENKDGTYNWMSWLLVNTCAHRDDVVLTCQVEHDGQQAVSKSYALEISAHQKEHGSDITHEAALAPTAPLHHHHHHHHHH

Row | binding result (人SIRPβ-ECD-His抗原) | fold stronger affinity than Benchmark (重组人SIRPα带his标签的蛋白 [1]) [fold] | Kd (重组人SIRPα带his标签的蛋白 [2]) [nM] | Kd (重组人SIRPα带his标签的蛋白 [3]) [nM] | Binder
1 | binds | ~2.4 | 1.25 |  | 抗人SIRPα单克隆抗体 A2D9D1B1 (antibody, mouse IgG1, kappa, V domains shown, also called 鼠抗A2D9D1B1; A2D9D1B1单克隆抗体) VH: QVQLKESGPGLVAPSQSLSITCTVSGFSLSSYAIHWVRQPPGKGLEWLGVIWTGGSTIYNSALMSRLNISKDNSKSQVFLKMNSLQTDDTAMYYCARGNYLRYWGQGTLVTVSA VL: NIVLTQSPASLAVSLGQRATISCRASESVDSYGYSYMHWNQQKPGQPPKLLIYLASDLESGVPARFSGSGSRTDFTLTIDPVEADDAATYYCQQNNDDPWTFGGGTKLEIKR
2 |  |  |  | 2.94 | Benchmark (KWAR23抗体) (antibody, human IgG4 S228P, kappa, V domains shown, Made in-house; full heavy and light chains are printed; The printed constant regions look human, while the ELISA and Biacore protocols describe anti-mouse capture and detection reagents; also called BM; 参照抗体) VH: EVQLQQSGAELVKPGASVKLSCTASGFNIKDYYIHWVQQRTEQGLEWIGRIDPEDGETKYAPKFQDKATITADTSSNTAYLHLSSLTSEDTAVYYCARWGAYWGQGTLVTVSA VL: QIVLTQSPAIMSASPGEKVTLTCSASSSVSSSYLYWYQQKPGSSPKLWIYSTSNLASGVPARFSGSGSGTSYSLTISSMEAEDAASYFCHQWSSYPRTFGAGTKLELKR
